B1: se-MTAN: MTAN enzyme from Salmonella enterica (SEQ ID NO: 3), N-terminal His6 tag, expressed in E. coli (protein, listed as Salmonella enterica)
chain: MKIGIIGAMEEEVTLLRDKIDNRQTITLGGCEIYTGQLNGTEVALLKSGIGKVAAALGATLLLEHCKPDVIINTGSAGGLASTLKVGDIVVSDETRYHDADVTAFGYEYGQLPGCPAGFKADDKLIAAAESCIRELNLNAVRGLIVSGDAFINGSVGLAKIRHNFPDAVAVEMEATAIAHVCHNFNVPFVVVRAISDVADQQSHLSFDEFLAVAAKQSTLMVETLVQKLAHG
modifications: N-terminal His6 tag
B2: hs-MTAP: MTAP enzyme from Homo sapiens (SEQ ID NO: 1), N-terminal His6 tag, expressed in E. coli (protein, listed as Homo sapiens)
chain: MASGTTTTAVKIGIIGGTGLDDPEILEGRTEKYVDTPFGKPSDALILGKIKNVDCVLLARHGRQHTIMPSKVNYQANIWALKEEGCTHVIVTTACGSLREEIQPGDIVIIDQFIDRTTMRPQSFYDGSHSCARGVCHIPMAEPFCPKTREVLIETAKKLGLRCHSKGTMVTIEGPRFSSRAESFMFRTWGADVINMTTVPEVVLAKEAGICYASIAMATDYDCWKEHEEAVSVDRVLKTLKENANKAKSLLLTTIPQIGSTEWSETLHNLKNMAQFSVLLPRH
modifications: N-terminal His6 tag
B3: PEG-hs-MTAP: hs-MTAP with surface lysine residues reacted with Methoxyl PEG Succinimidyl Carbonate 5000 MW (conjugate, UniProt Q13126 1-283, looked up)
S-methyl-5'-thioadenosine …: B2 chain
modifications: PEG 5000
notes: hs-MTAP with surface lysine residues reacted with Methoxyl PEG Succinimidyl Carbonate 5000 MW

Key:
murine T cells = test: Restoring proliferation of murine T cells treated with MTA (CellTrace Violet, FACS); type: cell-based, mouse; details: 5 μM enzyme, CD8+ and CD4+ T cells
Text: Spleens dissected from healthy 8-week-old C57BL6 mice were crushed in a 70 μm Falcon™ Cell Strainer to obtain single cells, which were further isolated using the EasySep™ Mouse T-Cell Isolation Kit (Stem Cell). Isolated T cells were brought to a concentration of 1×10^6 cells/mL in PBS and were processed according to the CellTrace™ Violet Cell Proliferation Kit protocol (Thermo Fisher), which measures proliferation as a function of dye dilution with each cell-division. The labeled cells were then re-counted and brought to 1×10^6 cells/mL of RPMI media and 1 mL/well were plated, after which anti-CD3/CD28 beads were added to activate the T cells (Dynabeads® Mouse T-Activator CD3/CD28 for T-Cell Expansion and Activation from Thermo Fisher) according to the protocol from the kit. Subsequently, three different MTA concentrations, 0 μM MTA, 125 μM MTA, or 250 μM MTA were added to the plated cells. Finally, MTAP and MTAN were added to the appropriate wells at a final concentration of 5 μM enzyme, and PBS was added to the control wells. After incubation for five days, cells were then collected and stained with anti-CD3, anti-CD4, anti-CD8, and Fixable Viability Dye eFluor™ 520 and analyzed by FACS. The antibodies used were all from Biolegend: PE anti-mouse CD3 (17A2), APC anti-mouse CD4 (GK1.5), APC/Fire™ 750 anti-mouse CD8a (53-6.7), and Brilliant Violet 421™ anti-mouse Ki-67 (16A8). […]

[1] = Kinetic stability of purified enzymes in phosphate buffer; type: physicochemical
Protocol: The kinetic stabilities of purified hs-MTAP and se-MTAN enzymes were determined by incubating the enzymes in a 100 mM phosphate buffer (pH 7.4) at 37° C. Over the course of four days, aliquots of hs-MTAP and se-MTAN were withdrawn from the incubations and assessed for their ability to degrade MTA as described in Example 5. The resulting data were processed and fitted to an exponential equation to determine the decay rate.

[2] = test system: B16-F10 MTAP−/− allografts; test: Efficacy in the B16-MTAP−/− melanoma tumor model; type: in vivo, mouse; details: 50 mg/kg three times/week peri-tumoral, 2 weeks
Text: As B16 is a very well characterized cell line in terms of metabolism and its interaction with host immune systems, it was hypothesized that an MTAP deletion in this strain would create a relevant model to evaluate the consequences of MTA accumulation both metabolically to the tumor and upon the host immune system. Cas9 protein (TrueCut™ Cas9 Protein v2) and synthetic single guide RNA purchased through ThermoFisher were transfected into B16-F10 WT cells using lypofectamine (Lipofectamine™ CRISPRMAX™ Cas9 Transfection Reagent). After two days of transfection, cells were plated using limited dilution method into ten 96-well plates. Plates were examined daily for single cell clones and after reaching confluency (10-14 days post transfection) clones were further expanded and analyzed for MTAP expression through Western blotting, and clones lacking MTAP expression were verified for gene disruption by cloning and sequencing.
(§1) Two cohorts each of C57/BL6 mice were subcutaneously inoculated with either 50,000 WT B16-F10 or B16-F10 MTAP^−/− cells. When the tumors reached a mean size of 55 mm^3 the mice were treated with either vehicle (PBS) or 50 mg/kg of PEG-MTAP three times/week by peri-tumoral injection for 2 weeks. As expected from a tumor highly expressing MTAP, it was observed that PEG-MTAP treatment had no effect on the growth of WT B16-F10 tumors (FIG. 8A).

WT B16-F10 tumors = test: Efficacy in the B16 WT melanoma tumor model; type: in vivo, mouse; details: C57/BL6 mice, 50 mg/kg three times/week peri-tumoral, 2 weeks
Protocol: as §1

B16-F10 MTAP−/− tumor = test: Immune phenotype in the B16-MTAP−/− melanoma tumor model (FACS); type: in vivo, mouse; details: two doses, 24 hr post dose, vs vehicle
Protocol: Lymphocyte panels observed by FACS analyses from C57/BL6 mice bearing B16-F10 MTAP^−/− tumor samples were assessed after treatment with two doses of PEG-MTAP or vehicle (analyzed 24 hr post dose).

Row | Molecule | reversal of the MTA effect on T cell proliferation and viability (murine T cells) | half-life (T1/2) of activity ([1]; 100 mM phosphate buffer, pH 7.4, 37° C.) [h] | half-life (T1/2) of activity ([1]; pH 7.4) [h] | complete responses (CRs) in the treatment group ([2]; 3/7 CRs) [%] | tumor growth ([2]; C57/BL6 mice) | tumor growth (WT B16-F10 tumors) | percentage of CD4+ T cells (B16-F10 MTAP−/− tumor) | percentage of NK1.1+ natural killer cells (B16-F10 MTAP−/− tumor) | percentage of proliferating CD8+ Granzyme B+ T cells (B16-F10 MTAP−/− tumor)
1 | B1 | completely reversed | 56 |  |  |  |  |  |  | 
2 | B2 | completely reversed |  | 57 |  |  |  |  |  | 
3 | B3 |  |  |  | 43 | drastically retarded tumor growth | no effect | large increases | large increases | large increases
